# Reference: US7618787B2, “Method of screening compound capable of accelerating or inhibiting apoptosis, apoptosis accelarator and apoptosis inhibitor” (Hisamitsu Pharmaceutical Co., Inc., priority 2004, dated 2009)
# B1: IKK-α: IKK-α protein, amino acid sequence SEQ ID NO: 24, expressed from plasmid; apoptosis enhancer (protein, listed as Homo sapiens)
# chain: MERPPGLRPGAGGPWEMRERLGTGGFGNVCLYQHRELDLKIAIKSCRLELSTKNRERWCHEIQIMKKLNHANVVKACDVPEELNILIHDVPLLAMEYCSGGDLRKLLNKPENCCGLKESQILSLLSDIGSGIRYLHENKIIHRDLKPENIVLQDVGGKIIHKIIDLGYAKDVDQGSLCTSFVGTLQYLAPELFENKPYTATVDYWSFGTMVFECIAGYRPFLHHLQPFTWHEKIKKKDPKCIFACEEMSGEVRFSSHLPQPNSLCSLIVEPMENWLQLMLNWDPQQRGGPVDLTLKQPRCFVLMDHILNLKIVHILNMTSAKIISFLLPPDESLHSLQSRIERETGINTGSQELLSETGISLDPRKPASQCVLDGVRGCDSYMVYLFDKSKTVYEGPFASRSLSDCVNYIVQDSKIQLPIIQLRKVWAEAVHYVSGLKEDYSRLFQGQRAAMLSLLRYNANLTKMKNTLISASQQLKAKLEFFHKSIQLDLERYSEQMTYGISSEKMLKAWKEMEEKAIHYAEVGVIGYLEDQIMSLHAEIMELQKSPYGRRQGDLMESLEQRAIDLYKQLKHRPSDHSYSDSTEMVKIIVHTVQSQDRVLKELFGHLSKLLGCKQKIIDLLPKVEVALSNIKEADNTVMFMQGKRQKEIWHLLKIACTQSSARSLVGSSLEGAVTPQTSAWLPPTSAEHDHSLSCVVTPQDGETSAQMIEENLNCLGHLSTIIHEANEEQGNSMMNLDWSWLTE
# Legend:
# H1299 cells = assay: Apoptosis assay (trypan blue / Red-Gal double staining), p73α-dependent; format: cell-based, human; settings: H1299, coexpression with HA-p73α, 48 hours (FIG. 25-27)
# Description: To detect apoptosis via p73α and IKK overexpression, H1299 cells were seeded at a density of 1.5×10^4 cells/well onto a 6-well tissue culture dish. Next day, the cells were transiently transfected with 50 ng of β-galactosidase expression plasmid and 50 ng of HA-p73α expression plasmid in the presence or absence of varying amounts of IKK-α or IKK-β expression vectors (100, 200, or 400 ng). After 48 hours of the transfection, the cells were washed with ice-cold PBS and stained at room temperature for 10 minutes with 0.4% trypan blue (PBS solution). Then, the cells were washed twice with PBS, then fixed for 10 minutes in PBS containing 2.5% glutaraldehyde, 1 mM magnesium chloride, and 2 mM EGTA, and stained for 2 hours with Red-Gal (Research Organics) according to the method described in Bayon, Y. et al., Mol. Cell. Biol. 23: 1061-1074 (2003). Red-Gal was used as a marker for visualizing the transfected cells to evaluate the degree of apoptosis occurring in the transfectants. […] Results were indicated by an average of three independent transfections (each performed three times or more).
# Potential effect(s) of IKK-α on p73-dependent biological functions such as the regulation of apoptosis was examined. […] After 48 hours of the transfection, the cells were subjected to double staining with trypan blue (nonviable cells) and Red-Gal (transfected cells), and the number of purple cells was scored.
# p73 [1] = target: T1, p73 (Homo sapiens, UniProt O15350); assay: Co-immunoprecipitation with p73 in transfected COS7 cells; format: binding; settings: COS7, co-immunoprecipitation (FIG. 10, FIG. 28)
# T1 construct: expressed in transfected cells; host or cells: COS7
# T1 sequence (O15350 1-636): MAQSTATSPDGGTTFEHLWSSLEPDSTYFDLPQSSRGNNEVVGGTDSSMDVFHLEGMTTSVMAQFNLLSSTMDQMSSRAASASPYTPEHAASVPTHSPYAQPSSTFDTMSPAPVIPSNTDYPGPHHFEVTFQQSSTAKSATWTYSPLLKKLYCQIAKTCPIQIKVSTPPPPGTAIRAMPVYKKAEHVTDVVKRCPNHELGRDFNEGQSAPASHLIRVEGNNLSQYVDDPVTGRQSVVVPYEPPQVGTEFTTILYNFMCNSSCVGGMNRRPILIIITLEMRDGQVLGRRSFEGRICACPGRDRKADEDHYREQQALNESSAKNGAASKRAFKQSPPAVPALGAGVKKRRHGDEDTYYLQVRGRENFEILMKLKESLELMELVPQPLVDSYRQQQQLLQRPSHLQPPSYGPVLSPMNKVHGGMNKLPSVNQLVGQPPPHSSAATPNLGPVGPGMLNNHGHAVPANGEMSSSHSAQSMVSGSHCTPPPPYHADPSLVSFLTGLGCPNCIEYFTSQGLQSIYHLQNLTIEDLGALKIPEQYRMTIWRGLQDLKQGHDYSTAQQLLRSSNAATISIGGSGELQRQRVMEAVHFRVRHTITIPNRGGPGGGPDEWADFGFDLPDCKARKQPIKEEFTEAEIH
# Description: (§1) Whole cell lysates were centrifuged at 15000 rpm for 15 minutes to remove cell debris. The obtained supernatant was pretreated at 4° C. for 30 minutes with protein G-Sepharose (50% slurry, 30 μL; Amersham Pharmacia Biotech). After centrifugation, the supernatant was incubated at 4° C. for 2 hours with an anti-HA polyclonal (Medical and Biological Laboratories) or anti-FLAG monoclonal antibody. The immunocomplexes were precipitated at 4° C. for 30 minutes with protein G-Sepharose beads. After collection by brief centrifugation, the immunoprecipitates were washed three times with lysis buffer, then suspended in 30 μL of 2×Laemmli SDS sample buffer, and treated at 100° C. for 5 minutes. The supernatant was loaded onto 10% SDS-PAGE and analyzed by immunoblot as described above.
# (§2) To investigate whether IKK-α interacted with p73 in cultured mammal cells, whole cell lysates were prepared from transfected COS7 cells, then immunoprecipitated with an anti-FLAG or anti-HA antibody, and analyzed by immunoblot using an anti-p73 or anti-FLAG antibody, respectively. […] Likewise, HA-p73β was co-immunoprecipitated with FLAG-IKK-α (data not shown). […] To identify determinants of p73 participating in the interaction with IKK-α, several deletion mutants of p73 fused to GST were prepared and examined for their abilities to bind to FLAG-IKK-α by in-vitro pull-down assay. These mutants were designed on the basis of the functional domains of p73 including transactivation, DNA-binding, oligomerization, and SAM domains (FIG. 12).
# p73 [2] = target: T2, p73 (Homo sapiens, UniProt O15350); assay: as above; format: binding; settings: COS7, data not shown
# T2 construct: expressed in transfected cells; host or cells: COS7
# T2 sequence (O15350 1-499 isoform O15350-2): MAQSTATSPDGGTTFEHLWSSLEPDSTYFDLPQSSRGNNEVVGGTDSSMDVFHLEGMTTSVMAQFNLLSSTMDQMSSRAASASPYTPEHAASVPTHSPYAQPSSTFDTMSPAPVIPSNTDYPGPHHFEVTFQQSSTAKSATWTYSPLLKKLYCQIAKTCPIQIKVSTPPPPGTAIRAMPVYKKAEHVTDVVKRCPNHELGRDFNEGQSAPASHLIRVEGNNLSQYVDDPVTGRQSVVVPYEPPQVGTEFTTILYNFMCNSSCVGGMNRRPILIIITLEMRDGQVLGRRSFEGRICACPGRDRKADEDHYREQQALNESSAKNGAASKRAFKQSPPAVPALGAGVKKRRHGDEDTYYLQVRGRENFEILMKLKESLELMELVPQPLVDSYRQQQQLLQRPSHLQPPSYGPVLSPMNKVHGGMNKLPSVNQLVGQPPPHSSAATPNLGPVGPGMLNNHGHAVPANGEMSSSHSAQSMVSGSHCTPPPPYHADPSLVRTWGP
# Description: as §1, §2
molecule,measurement,setting,value
B1,number of cells undergoing p73α-dependent apoptosis,H1299 cells,increased the number of cells undergoing apoptosis
same,complex formation with HA-p73α,p73 [1],formed stable complexes
same,co-immunoprecipitation with HA-p73β,p73 [2],co-immunoprecipitated
